Target: mouse PD-1 (programmed cell death-1), wild type, expressed on CHO cells (mouse) (UniProt Q02242)
Assay: biomembrane force probe

Chain of UniProt Q02242 (Q02242 25-288): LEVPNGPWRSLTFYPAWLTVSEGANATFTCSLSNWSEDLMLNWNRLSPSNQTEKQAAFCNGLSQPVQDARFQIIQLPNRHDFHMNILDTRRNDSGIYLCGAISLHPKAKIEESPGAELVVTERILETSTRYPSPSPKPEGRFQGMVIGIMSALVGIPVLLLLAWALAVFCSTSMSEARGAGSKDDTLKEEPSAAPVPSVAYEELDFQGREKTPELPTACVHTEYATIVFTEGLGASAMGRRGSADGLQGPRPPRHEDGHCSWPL

## mouse PD-L2 with C-terminal biotin (from UniProt Q9WUL5 20-221) (ligand)
  F1/2 (force at which 50% of the bonds rupture): 12.1 pN

— article PMC10462004
